Patent US10925971B2, “Methods of treating PRLR positive breast cancer” (Regeneron Pharmaceuticals, Inc., priority 2016, dated 2021)
Like-named read-outs stand apart in the source and are kept apart here.

Legend:
[1] = molecular target: T1, native PRLR expressing T47D cells (Homo sapiens, UniProt P16471); assay: FACS cell surface binding
T1 construct: a native PRLR expressing cell line (T47D); endogenous in cells; host or cells: T47D
T1 sequence (P16471 25-622): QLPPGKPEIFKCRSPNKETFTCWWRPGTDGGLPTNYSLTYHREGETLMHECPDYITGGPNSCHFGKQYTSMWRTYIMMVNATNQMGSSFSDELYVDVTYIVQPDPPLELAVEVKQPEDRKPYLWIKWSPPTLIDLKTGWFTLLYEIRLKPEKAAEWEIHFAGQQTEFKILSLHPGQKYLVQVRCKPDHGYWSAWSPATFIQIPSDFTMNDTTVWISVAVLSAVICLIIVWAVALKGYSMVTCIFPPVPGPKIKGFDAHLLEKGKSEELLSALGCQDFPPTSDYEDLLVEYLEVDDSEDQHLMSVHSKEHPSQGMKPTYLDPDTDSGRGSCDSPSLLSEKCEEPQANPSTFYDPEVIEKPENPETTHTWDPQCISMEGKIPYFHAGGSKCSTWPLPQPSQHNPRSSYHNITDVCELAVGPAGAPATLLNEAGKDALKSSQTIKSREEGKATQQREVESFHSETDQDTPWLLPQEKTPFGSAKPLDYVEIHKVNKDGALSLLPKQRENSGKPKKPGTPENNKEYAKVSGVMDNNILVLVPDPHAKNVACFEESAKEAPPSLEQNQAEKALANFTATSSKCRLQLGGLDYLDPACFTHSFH
Procedure, shortened: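 Flow cytometry on native PRLR-expressing T47D cells, alongside PRLR-overexpressing and parental HEK293 lines. Cells (1×10^5) incubated with antibody at 10 μg/ml, 30 min on ice, then PE anti-human secondary; binding reported as MFI fold over isotype control.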

[2] = molecular target: T2, human PRLR on HEK293/hPRLR cells (Homo sapiens, UniProt P16471); assay: FACS cell surface binding
T2 construct: HA; expressed in transfected cells; host or cells: HEK293
T2 sequence (P16471 25-622): T1 sequence (P16471 25-622)
Procedure, shortened: (§1)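 HEK293 cells stably transfected with HA-tagged human, cynomolgus or mouse PRLR (G418-selected), or parental HEK293, were stained with 10 μg/ml antibody for 30 min on ice. Binding was then detected with 10 μg/ml PE anti-human secondary for 30 min on ice, and MFI was expressed as fold over isotype control.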

[3] = molecular target: T3, mouse PRLR on HEK293/mPRLR cells (Mus musculus, UniProt Q08501); assay: FACS cell surface binding
T3 construct: HA; expressed in transfected cells; host or cells: HEK293
T3 sequence (Q08501 20-608): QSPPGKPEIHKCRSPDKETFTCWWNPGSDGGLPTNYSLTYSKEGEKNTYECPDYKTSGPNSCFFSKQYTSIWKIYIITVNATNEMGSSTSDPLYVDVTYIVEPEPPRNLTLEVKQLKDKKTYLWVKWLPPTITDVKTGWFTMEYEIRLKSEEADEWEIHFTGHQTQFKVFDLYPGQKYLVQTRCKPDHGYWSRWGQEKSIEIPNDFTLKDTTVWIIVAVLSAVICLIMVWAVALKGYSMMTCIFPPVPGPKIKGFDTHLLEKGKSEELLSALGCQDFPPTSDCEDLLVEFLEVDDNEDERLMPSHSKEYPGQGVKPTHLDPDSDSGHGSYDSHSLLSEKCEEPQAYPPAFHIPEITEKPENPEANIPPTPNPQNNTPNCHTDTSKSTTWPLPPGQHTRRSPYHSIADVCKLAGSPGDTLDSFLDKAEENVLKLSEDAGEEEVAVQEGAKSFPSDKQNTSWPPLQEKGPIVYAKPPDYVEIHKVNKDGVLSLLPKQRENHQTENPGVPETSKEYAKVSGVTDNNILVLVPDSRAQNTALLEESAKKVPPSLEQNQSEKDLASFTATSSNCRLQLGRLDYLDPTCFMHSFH
Procedure, shortened: as §1

MCF7/PRLR tumors = assay: MCF7/PRLR breast cancer xenograft, tumor size and tumor growth inhibition; type: in vivo, NCr nude mice; details: for Average Tumor Growth Inhibition (%) / Final Tumor size mm^3 (mean ± SEM): NCr Nude mice
Procedure, shortened: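 MCF7/PRLR cells in mammary fat pad of female NCr nude mice, PC3/PRLR in flank of male SCID, T47D #11 in flank of female CB17 SCID, all with estrogen pellets.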

T47D#11 tumors = type: in vivo, CB17 SCID mice; details: for Average Tumor Growth Inhibition (%) / Final Tumor size mm^3 (mean ± SEM): T47D#11 tumors, SCID mice, Day 66
Text: Briefly, 20×10^6 MCF7/PRLR cells (ATCC HTB-22 transfected with full length hPRLR as previously described) were implanted subcutaneously into the left mammary fat pad of female NCr nude mice. In other studies, 10×10^6 PC3/PRLR (ATCC CRL-1435 transfected with full length hPRLR as previously described) were implanted subcutaneously into the left flank of male SCID mice. Additionally, 10×10^6 parental T47D (ATCC HTB-133) or 7.5×10^10 T47D #11 cells (ATCC HTB-133 serially passaged in vivo as described below) were subcutaneously implanted into the left flank of female CB17 SCID mice. All mice were obtained from Taconic (Hudson, N.Y.). Each bolus of cells was supplemented with a 90-day estrogen release pellet (1.7 mg/pellet; Innovative Research America, Sarasota Fla.). […] Control reagents included PBS vehicle, free methyl-disulfide DM1 (DM1-SMe) and isotype Control 1-DM1.
In multi-dose studies, mice were dosed once a week for a total of three weeks with tumor volumes and body weights being monitored twice weekly throughout the study. Test ADCs were dosed at 5 and/or 15 mg/kg in the multi-dose studies. In single-dose studies, mice received a single dose of test ADC, and tumor volumes and body weights were monitored twice weekly throughout the study. Test ADCs were dosed at 1, 2.5, 5, and 15 mg/kg in the single-dose studies. Average tumor size as well as tumor growth inhibition relative to the vehicle treated group were calculated for each group. Tumors were measured with calipers twice a week until the average size of the vehicle group reached 1000 mm^3. Tumor size was calculated using the formula (length×width^2)/2. Tumor growth inhibition was calculated according to the following formula: (1−((Tfinal−Tinitial)/(Cfinal−Cinitial)))*100, where T (treated group) and C (control group) represent the mean tumor mass on the day the vehicle group reached 1000 mm^3. […] Results are summarized in Tables 21-25 (multi-dose) and Table 26 (single dose). (NT=not tested in the particular experiment shown).

[4] = MCF7/PRLR tumors TRIAL #1, multi-dose 15 mg/kg, Day 52
[5] = MCF7/PRLR tumors TRIAL #1, multi-dose 5 mg/kg, Day 52
[6] = MCF7/PRLR tumors TRIAL #2, multi-dose 5 mg/kg, Day 63
[7] = MCF7/PRLR tumors TRIAL #2, multi-dose 15 mg/kg, Day 63

B1: H1H6975N: anti-PRLR antibody, human IgG1 Fc form of H2M6975N of Table 1; HCVR/LCVR SEQ ID NOs 370/378 (antibody, V domains shown)
VH: EVHLVESGGGLVQPGGSLRLSCAASGFTFSSYEMNWVRQTPGKGLEWISHISSRSVIIYYADSVKGRFTISRDNAKNSLFLQMNSLRAEDTAVYFCAGITIFGIPEYWGQGTLVTVSS
VL: EIVLTQSPATLSLSPGERATLSCRASQSVSSYFAWYQQKPGQAPRLLIYDASSRATGIPTRFSGSGSGTDFTLTISSLEPEDFAVYYCQQRSSWPITFGQGTRLEIK
modifications: human IgG1 Fc
FACS Cell Binding [1]: 46 Fold Above Background
FACS Cell Binding [2]: 38 Fold Above Background
FACS Cell Binding [3]: 1 Fold Above Background
Average Tumor Growth Inhibition (%) (MCF7/PRLR tumors; [4]): 51%
Final Tumor size mm^3 (mean ± SEM) (MCF7/PRLR tumors; [4]): 659 ± 144 mm^3

B2: H1H6958N2-DM1: anti-PRLR antibody H1H6958N2 conjugated to the maytansinoid DM1 through an SMCC linker (conjugate)
VH: QVQLVESGGGVVQPGRSLRLSCGASGFTFRNYGMQWVRQGPGKGLEWVTLISFDGNDKYYADSVKGRFTISRDNSKNTLFLQMNSLRTEDTAVYYCARGGDFDYWGQGTLVTVSS
VL: DIQMTQSPSSLSASVGDRVTITCRASQDIRKDLGWYQQKPGKAPKRLIYAASSLHSGVPSRFSGSGSGTEFTLTISSLQPEDFATYYCLQHNSYPMYTFGQGTKLEIK
Average Tumor Growth Inhibition (%) (T47D#11 tumors; multi-dose 5 mg/kg): 102%
Final Tumor size mm^3 (mean ± SEM) (T47D#11 tumors; multi-dose 5 mg/kg): 168 ± 19 mm^3
Average Tumor Growth Inhibition (%) (T47D#11 tumors; multi-dose 15 mg/kg): 112%
Final Tumor size mm^3 (mean ± SEM) (T47D#11 tumors; multi-dose 15 mg/kg): 44 ± 5 mm^3
T47D #11 tumor growth (T47D#11 tumors; repeat dosing 5 and 15 mg/kg): potently inhibited tumor growth
Average Tumor Growth Inhibition (%) (MCF7/PRLR tumors; [5]): 128%
Final Tumor size mm^3 (mean ± SEM) (MCF7/PRLR tumors; [5]): 51 ± 33 mm^3
Average Tumor Growth Inhibition (%) (MCF7/PRLR tumors; [4]): 133%
Final Tumor size mm^3 (mean ± SEM) (MCF7/PRLR tumors; [4]): 0 ± 0 mm^3
Average Tumor Growth Inhibition (%) (MCF7/PRLR tumors; [6]): 116%
Final Tumor size mm^3 (mean ± SEM) (MCF7/PRLR tumors; [6]): 117 ± 10 mm^3
Average Tumor Growth Inhibition (%) (MCF7/PRLR tumors; [7]): 137%
Final Tumor size mm^3 (mean ± SEM) (MCF7/PRLR tumors; [7]): 0 ± 0 mm^3
MCF7/PRLR tumor growth (MCF7/PRLR tumors; first multi-dose trial, 5 and 15 mg/kg): potently inhibited MCF7/PRLR tumor growth
tumor volume relative to vehicle control tumors (MCF7/PRLR tumors; single dose 1 mg/kg): significant decrease in tumor volume

B3: H1H6953N: anti-PRLR antibody, human IgG1 Fc form of H1M6953N of Table 1; HCVR/LCVR SEQ ID NOs 274/282 (antibody, V domains shown)
VH: EVQLLESGGGLVQPGGTLRLSCAASGFTFSAYAMSWVRQAPGKGLEWVSSINVRAGDTYYADSVKGRFTISRDNSKNTLFLLMNSLRAEDTAAYYCAKARYSSNWGFDFWGQGTLVTVSS
VL: DIVMTQSPDSLTVSLGARTTINCQSSQTILHSSNNHNYLAWYQQKPGLPPKLLIYWSSTRESGVPDRFSGSGSGTDFTLTISSLQAEDVAIYYCQQYSNTPYTFGQGTKLEIN
FACS Cell Binding [1]: 40 Fold Above Background
FACS Cell Binding [2]: 37 Fold Above Background
FACS Cell Binding [3]: 2 Fold Above Background
Final Tumor size mm^3 (mean ± SEM) (MCF7/PRLR tumors; [4]): 421 ± 23 mm^3

B4: H1H6795P: fully human anti-PRLR antibody, human IgG1 Fc; HCVR/LCVR SEQ ID NOs 162/170 (antibody, V domains shown)
VH: QVQLVQSGAEVKKPGASVKVSCKASGYTFGTSGITWVRQAPGQGLEWMGWSSAYNGKTDYAQKFQDRVTMTTDTSTTTGYMEMRSLTSDDTAVYYCTTVVRRPFDFWGQGTLVTVSS
VL: DIQMTQSPSSLSASVGDRVTITCRASQDINNFLAWFQQKPGKAPKSLIYAASSLQSGVPSKFSGGGSGTDFALTISSLQPEDFATYYCQQYSSYPITFGQGTRLEIK
FACS Cell Binding [1]: 34 Fold Above Background
FACS Cell Binding [2]: 1 Fold Above Background
FACS Cell Binding [3]: 1 Fold Above Background

B5: H1H6774P: fully human anti-PRLR antibody, human IgG1 Fc; HCVR/LCVR SEQ ID NOs 34/42 (antibody, V domains shown)
VH: EVQLVESGGGLAQPGGSLRLSCVASGFTFSTYWMSWVRQAPGKGLDWVGNIKQDGSEQNYVDSVRGRFTISRDNAKNSLFLQMNSLRAEDTGVYYCATLLTKGDYWGQGTLVTVSS
VL: DIQMTQSPSSLSASVGDSVTITCRASQDISNYLDWFQQKPGKAPKSLIYAASILQGGVPSRFSGSGYGTDFTLTISSLQPEDFATYYCRQYKTYPFTFGPGTKVDIK
FACS Cell Binding [1]: 39 Fold Above Background
FACS Cell Binding [2]: 1 Fold Above Background
FACS Cell Binding [3]: 1 Fold Above Background

B6: H1H6797P: fully human anti-PRLR antibody, human IgG1 Fc; HCVR/LCVR SEQ ID NOs 178/186 (antibody, V domains shown)
VH: EVQLVESGGGLVQPGGSLRLSCIVSGFTFSGSWMSWVRQLPGKGLEWVANIKEDGSDSYYVDSVEGRFTISRDNAKSSLYLQMNSLRVDDTAVYFCARARTVPLHYWGQGTLVTVSS
VL: DIQMTQSPSTLSASVGDRVTITCRASQSINIWLAWYQQKPGKAPKLLIYRASYLESGVPSSFAGGGSGTEFTLTISSLQPDDFGTYYCQHYNSYPFTFGQGTKLEIK
FACS Cell Binding [1]: 38 Fold Above Background
FACS Cell Binding [2]: 1 Fold Above Background
FACS Cell Binding [3]: 2 Fold Above Background
